This note sets out measurements from patent publication US20160264650A1 (Regeneron, published 2016).

Broadly, the Kd is the concentration at which binding is half-saturated. A lower Kd goes with tighter binding. For orientation: koff means a measure of how fast the partners let go of each other. A high value points to a short-lived complex. For orientation: kon means a measure of how fast the partners come together.

Numbering of substitutions follows the chain as printed. Where two headings read alike, the source gives them in different places.

Experiment [1] addresses T1, Clostridium difficile toxin A, soluble full-length (TechLab) (Clostridium difficile, UniProt P16154 1-2710). Put plainly: cell-based or functional assay.
Experiment [2] has as its target T2, CBD-toxin A-Fc (Clostridium difficile, UniProt P16154 1848-2710).
T2 construct: also called CBD-A; C-term Toxin A
The experiment is described as follows: SPR Biacore, CBD-A-Fc captured, 500 nM mAb flowed.

Experiment [3] concerns the target T2, CBD-toxin A-Fc. The experiment is described as follows: SPR Biacore, mAb captured, 100 nM CBD-A-Fc flowed.
Experiment [4] deals with T1, Clostridium difficile toxin A, soluble …. Put plainly: SPR Biacore T200, 37C, mAb capture.
For experiment [5] the target is unchanged. The experiment is described as follows: SPR Biacore T200, 37C, mAb capture. The source holds these as a separate data set. In general terms: Surface plasmon resonance follows binding to a sensor surface in real time, without labels.
Experiment [6] deals with T3, CBD-toxin B-Fc (Clostridium difficile, UniProt P18177 1851-2366).
T3 construct: also called CBD-B; C-term Toxin B
The experiment is described as follows: SPR Biacore, CBD-B-Fc captured, 500 nM mAb flowed.

The target of experiment [7] is T4, Clostridium difficile toxin B, soluble full-length (TechLab) (Clostridium difficile, UniProt P18177 2-2366).
T4 construct: also called tcdB
The experiment is described as follows: SPR Biacore T200, 37C, mAb capture.

In experiment [8] the target is T5, C-term receptor Binding Domain (CBD) of toxin B (Clostridium difficile, UniProt P18177 1851-2366).
T5 construct: also called CBD-B
The experiment is described as follows: SEC (Superose 6) of CBD and mAb mixture.

Experiment [9] addresses T4, Clostridium difficile toxin B, soluble …. Put plainly: cell-based or functional assay.

B1: H2aM3067N (antibody, V domains shown)
VH: QIQLVESGGGVVQPGRSLRLSCVASGFTLSGHGMHWVRQAPGKGLEWVAFISFDGGHQDYTDAAEGRFTISRDNSKNTLYLEMVSLRPADTAIYYCVKGSDSSRGFGYWGRGILVTVSS
VL: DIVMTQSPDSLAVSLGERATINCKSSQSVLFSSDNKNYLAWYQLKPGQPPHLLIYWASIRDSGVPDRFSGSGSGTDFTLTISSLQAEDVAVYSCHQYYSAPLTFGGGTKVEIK
notes: also called H2M3067N; H1M3067N
As to B1, in [1], the “IC50, Vero cell viability (neutralization), Trial 1, 32 pM Toxin A” value turned out to be 64 pM. In experiment [1], the “IC50, Vero cell viability (neutralization), Trial 2, 32 pM Toxin A” value worked out at 44 pM. Also, the “binding (RU)” value in [2] was 237 RU; in experiment [3], -2 RU.

B2: H1H3067N (antibody, V domains shown)
VH: B1 VH
VL: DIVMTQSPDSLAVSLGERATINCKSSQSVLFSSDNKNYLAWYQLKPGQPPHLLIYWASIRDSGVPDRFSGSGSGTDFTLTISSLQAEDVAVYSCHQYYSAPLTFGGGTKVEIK
On to B2, for which, in experiment [4], binding was put at a Kd of 240 pM, the “T½” value was determined as 5.58 h, the koff came to 3.45e-05 s⁻¹ and the kon turned out to be 144000 M⁻¹ s⁻¹.

B3: H1H3324P (antibody, V domains shown)
VH: EVQLVESGGGLVQPGGSLRLSCAASGFTFSSYDMHWVRQVIGKGLEWVSAIGTVGDTYYAGSVKGRFTISRENAKNSLYLQMNSLRAGDTAVYYCARDRGGANIYSFYYGMDVWGQGTTVTVSS
VL: DIQMTQSPSSLSVSVGDRVTITCRASQDISNYLAWYQQKPGKVPKLLIYAASTLQSGVPSRFSGSGSGTDFTLTISSLQPEDVATYFCQKYNSAPFTFGPGTKVDIKR
As to B3, in experiment [1], the “IC50, Vero cell viability (neutralization), Trial 4, 32 pM Toxin A” value stood at 33 pM. Moreover, in experiment [5], binding was put at a Kd of 13.9 pM, the “T½” value came out at 54.9 h, the off-rate constant (koff) is 3.5e-06 s⁻¹ and the on-rate constant (kon) turned out to be 251000 M⁻¹ s⁻¹. Besides, the “binding (RU)” value in experiment [2] came out at 224 RU. Further, the “binding (RU)” value in experiment [6] was -8 RU. Moreover, in experiment [3], the “binding (RU)” value is 269 RU.

B4: H1H3328P (antibody, V domains shown)
VH: B3 VH with R19T, G26R, S31N, V40A, I41T, E72D, N73D, N103G, I104T
VL: B3 VL with V13A, I75V, F87Y, N92T
In the case of B4, the “IC50, Vero cell viability (neutralization), Trial 3, 32 pM Toxin A” value in [1] stood at 112 pM. Further, in [5], the Kd worked out at 95.7 pM, the “T½” value turned out to be 5.27 h, the koff turned out to be 3.66e-05 s⁻¹ and the kon is 382000 M⁻¹ s⁻¹. Moreover, the “binding (RU)” value in experiment [2] is 227 RU. For the same molecule, in experiment [6], the “binding (RU)” value was -6 RU. For the same molecule, the “binding (RU)” value in experiment [3] turned out to be 354 RU.

B5: H1M3117N (antibody, V domains shown)
VH: EVQLLESGGGLAQPGGSLRLSCAASGFNFGTHDMSWVRQAPGKGLEWVSGLTSTGGSASSADSVKGRFTISRDNSKNILYLQMNSLRAEDTAVYYCAKTFNWNSYFDYWGQGTLVTVSS
VL: EIVLTQSPGTLSLSPGERATLSCRASQSISTYYLAWYQQKPDQPPRLLIYGTSSRATGIPDRFSGSGSGTDFTLTISRLDPEDFAVYYCQQYGNSLYTFGQGTKLEIK
Turning to B5, in experiment [1], the “IC50, Vero cell viability (neutralization), Trial 1, 32 pM Toxin A” value turned out to be 29 pM and the “IC50, Vero cell viability (neutralization), Trial 2, 32 pM Toxin A” value stood at 11 pM. For the same molecule, in [2], the “binding (RU)” value turned out to be 350 RU. Further, the “binding (RU)” value in [3] is -3 RU.

B6: H1H3117N (antibody, V domains shown)
VH: B5 VH
VL: B5 VL
Consider B6, for which, in [5], the Kd amounted to 79.3 pM, the “T½” value was found to be 5.53 h, the dissociation rate constant (koff) is 3.84e-05 s⁻¹ and the kon stood at 438000 M⁻¹ s⁻¹.

B7: H1M3134N (antibody, V domains shown)
VH: QVQLVESGGDVVQPGRSLRLSCAASGFTFSGHGMHWVRQAPGKGLEWVALILYDGSSEDYTDSVKGRFTVSRDNSKNTLYLQMNSLRAEDTAVYYCARGSILNRPFDYWGQGTLVTVSS
VL: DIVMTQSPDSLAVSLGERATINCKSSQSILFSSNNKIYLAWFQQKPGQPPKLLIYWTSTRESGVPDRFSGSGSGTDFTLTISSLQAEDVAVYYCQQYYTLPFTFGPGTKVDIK
notes: also called HIM3134N
As for B7, the “IC50, Vero cell viability (neutralization), Trial 4, 32 pM Toxin A” value in experiment [1] turned out to be 38 pM. The “binding (RU)” value in experiment [2] was 195 RU; in experiment [3], -1 RU.

B8: H1H3134N (antibody, V domains shown)
VH: B7 VH
VL: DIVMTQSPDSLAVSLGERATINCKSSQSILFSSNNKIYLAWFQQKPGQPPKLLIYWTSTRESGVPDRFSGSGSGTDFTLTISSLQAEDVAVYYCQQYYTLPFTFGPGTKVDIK
On to B8, for which, in [4], the Kd is 27.8 pM, the “T½” value is 68.3 h, the koff was 2.82e-06 s⁻¹ and the kon was found to be 102000 M⁻¹ s⁻¹.

B9: H1H3350P (antibody, V domains shown)
VH: QVQLVESGGGLVKPGGSLTLSCVASGFTFTDYYISWIRQAPGKGLEWISYIGTGGAAKYYADSVKGRFTVSRDNAKNSLYLLMNNLRAEDTAVYYCARDLGIFDLWGQGTLVTVSS
VL: EIVMTQSPATLSVSPGERATLSCRASQSVSSSLAWYHQKPGQAPRLLIHGVSTRATGIPARFSGTGSGTEFTLTISSLQSEDFAVYYCQQYHNWPPYTFGQGTKLEIKR
Turning to B9, in [5], the dissociation constant Kd amounted to 10.1 pM, the “T½” value came out at 47.6 h, the koff worked out at 4.05e-06 s⁻¹ and the on-rate (kon) is 402000 M⁻¹ s⁻¹.

B10: H1H3354P (antibody, V domains shown)
VH: QVQLQQSGPGLVKPSQTLSLTCAISGDSVSSNSAAWNWIRQSPSRGLEWLGRTYYRSKWYHDYAFSVKSRILINPDTSKNLFSLQVNSVTPEDTAVYYCARDRRSYFDYWGQGTLVTVSS
VL: EIVLTQSPATLSLSPGERATLSCRASRSVSSSLAWYQQKPGQAPRLLIYDASNRATGIPARFSGGGSGTDFTLTISSLEPEDFAVYYCQQRNNWPPTFGQGTKLEIKR
On to B10, for which the binding result in experiment [7] is “no binding (tested: toxin at 5 to 10 nM)”; in [8] it was “no binding (tested: CBD at ~500 nM, CBD:Mab 1:5 and 1:20)”. Moreover, the “binding (RU)” value in experiment [2] was -2 RU; in experiment [3] it was -19 RU.

B11: H1H3355P (antibody, V domains shown)
VH: EVQLVESGGGLVQPGRSLRLSCTASGFVFEDYAMHWVRQAPGKGLEWVSGISWNSGRIGYTDSVKGRFTVSRDNAKNSLYLQMNSLTTEDTALYYCAKDKSPSKWNLLGMDVWGQGTTVTVSS
VL: AIQMTQSPSSLSASVGDRVTITCRASQDIRNDLGWFQQKPGRAPNLLIFGASSLQSGVPSRFSGSGSGTDFTLTISGLQPEDFSTYYCLQDYTYPFTFGPGTKVDIKR
In the case of B11, the binding result in experiment [7] is on record as “no binding (tested: toxin at 5 to 10 nM)”.

B12: H1H3394P (antibody, V domains shown)
VH: QVQLVQSGAEVQKPGASVKVSCKASGYTFTDYYIHWVRQAPGQGLEWMGWINPKTGGTNYAPKFQGRVTMTRDSSIITAYMDLTRLTSDDTAVFYCARRGYNSRWSVFDYWGQGTLVTVSS
VL: EIVLTQSPGTLSLSPGERATLSCRASQSVYSNYLAWYQQKRGLAPRLLIYGASSRATGIPDRFSGSGSGTDFTLTISRLEPEDFAVYYCQQHGGSPVTFGGGTKVEIKR
With B12, in experiment [7], the Kd is 333 pM, the “T½” value worked out at 1.2 h, the dissociation rate constant (koff) is 0.000162 s⁻¹ and the kon turned out to be 486000 M⁻¹ s⁻¹.

B13: Control I (anti-toxin A antibody with the variable domains of the "3D8" antibody of U.S. Pat. No. 7,625,559 and US2005/0287150) (antibody, human IgG1, kappa, V domains shown)
VH: QVQLVESGGGVVQPGRSLRLSCAASGFSFSNYGMHWVRQAPGKGLEWVALIWYDGSNEDYTDSVKGRFTISRDNSKNTLYLQMNSLRAEDTAVYYCARWGMVRGVIDVFDIWGQGTVVTVSS
VL: DIQMTQSPSSVSASVGDRVTITCRASQGISSWLAWYQHKPGKAPKLLIYAASSLQSGVPSRFSGSGSGTDFTLTISSLQPEDFATYYCQQANSFPWTFGQGTKVEIKR
notes: also called control 1; Control Antibody I
With B13, the “IC50, Vero cell viability (neutralization), Trial 5, 25 pM Toxin A” value in experiment [1] was 199 pM. In addition, in [5], binding was characterised by a dissociation constant (Kd) of 85.9 pM, the “T½” value came to 0.967 h, the koff was determined as 3.24e-05 s⁻¹ and the association rate constant (kon) stood at 377000 M⁻¹ s⁻¹.

B14: H1H3401P (antibody, V domains shown)
VH: QVQLVESGGGVVQPGRSLRLSCEASGFTFSSYGMHWVRQAPGNGLEWIAVISSDGNNKYYIESVKGRFTMSRDNSKNTLYLQLNSLRTEDTAVYYCATYNWNDDGDGVFDYWGQGTLVTVSS
VL: B13 VL with S31N, H38Q, A50G, A51T, A91V, N92K, W96Y, V104L
B14: in experiment [7], the Kd amounted to 574 pM, the “T½” value stood at 0.8 h, the koff came to 0.000241 s⁻¹ and the kon came out at 420000 M⁻¹ s⁻¹.

B15: H1H3411P (antibody, V domains shown)
VH: EVQLVESGGGLVQPGGSLRLSCAASGFTFSRYGMNWVRQAPGKGLEWVSAISGSGGSTYHADSVKGRFTISRDNSKNTLYLQMNSLRAADTAIYFCASYNWNDGVDVWGQGTTVTVS
VL: B13 VL with V15I, S31N, H38Q, A50G, P59S, S76I, W96Y, V104L
With B15, the “IC50, Vero cell viability (neutralization), Trial 2, 0.1 pM Toxin B; antibody only partially protects (40-50%) at highest concentration” value in experiment [9] worked out at 8 pM. Also, in experiment [7], the equilibrium dissociation constant (Kd) came to 677 pM, the “T½” value is 1.22 h, the dissociation rate constant (koff) was determined as 0.000159 s⁻¹ and the kon was found to be 235000 M⁻¹ s⁻¹.
